The results in this text go back to article doi:10.1101/2025.08.22.671756.

The target in the test is Drosophila melanogaster insulin receptor ectodomain (dmIR-ECD) (Drosophila melanogaster) (UniProt P09208). Kind of test: cryo-EM structure.
Chain of Drosophila melanogaster insulin receptor ectodomain (dmIR-ECD) (Drosophila melanogaster) (P09208 291-1309): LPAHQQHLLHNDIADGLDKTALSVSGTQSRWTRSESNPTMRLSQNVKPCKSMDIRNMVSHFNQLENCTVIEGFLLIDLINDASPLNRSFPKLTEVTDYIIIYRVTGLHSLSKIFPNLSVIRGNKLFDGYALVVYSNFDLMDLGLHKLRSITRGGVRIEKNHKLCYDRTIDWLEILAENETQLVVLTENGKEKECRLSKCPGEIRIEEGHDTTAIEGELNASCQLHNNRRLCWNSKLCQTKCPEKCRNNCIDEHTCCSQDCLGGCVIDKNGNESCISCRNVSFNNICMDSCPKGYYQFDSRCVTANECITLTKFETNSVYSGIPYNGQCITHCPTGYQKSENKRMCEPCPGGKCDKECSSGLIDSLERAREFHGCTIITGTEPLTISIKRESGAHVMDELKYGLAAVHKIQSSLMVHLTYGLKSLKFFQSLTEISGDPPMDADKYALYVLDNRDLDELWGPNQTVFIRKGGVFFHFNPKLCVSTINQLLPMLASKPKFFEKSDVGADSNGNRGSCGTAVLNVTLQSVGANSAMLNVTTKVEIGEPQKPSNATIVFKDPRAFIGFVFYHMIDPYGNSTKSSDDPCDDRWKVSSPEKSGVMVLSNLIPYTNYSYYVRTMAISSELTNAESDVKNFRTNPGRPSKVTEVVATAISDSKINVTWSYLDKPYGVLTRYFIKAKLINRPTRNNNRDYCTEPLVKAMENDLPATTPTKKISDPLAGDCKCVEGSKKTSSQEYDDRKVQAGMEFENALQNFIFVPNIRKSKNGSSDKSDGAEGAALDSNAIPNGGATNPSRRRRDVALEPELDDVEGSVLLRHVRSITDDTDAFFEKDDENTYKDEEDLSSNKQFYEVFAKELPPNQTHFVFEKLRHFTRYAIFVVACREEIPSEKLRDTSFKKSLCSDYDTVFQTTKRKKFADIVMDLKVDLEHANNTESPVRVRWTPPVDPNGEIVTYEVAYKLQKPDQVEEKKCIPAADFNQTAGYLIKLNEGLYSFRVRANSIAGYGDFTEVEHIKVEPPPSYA

Chain of Drosophila insulin-like peptide 2 (DILP2), synthetic two-chain hormone with the A-chain starting at GlnA5 (ligand) (Q9VT51 27-137): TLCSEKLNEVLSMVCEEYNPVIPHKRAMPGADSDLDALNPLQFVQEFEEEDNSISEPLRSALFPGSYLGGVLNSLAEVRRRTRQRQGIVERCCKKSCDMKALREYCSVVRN

“Drosophila insulin-like peptide 2 (DILP2), synthetic two-chain hormone with the A-chain starting at GlnA5 (ligand)” came in with a stoichiometry N (DILP2 per dmIR-ECD (conformer 1)) of 1 and a stoichiometry N (DILP2 per dmIR-ECD (conformer 2)) of 2.
